B1: KCNG1 (parent)
chain: AVNLSVSTLPSLREEEEQVRAHAP

For 94 variants, protein stability index results are on record in the supplement of paper PMC10567573.
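Further: lentivirally expressed fusions sorted by FACS into six bins by GFP to DsRed ratio, PSI derived from sequencing read proportions per bin multiplied by bin number.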

In this series the parent is B1. As to the kind of experiment: protein stability index of a GFP-peptide fusion (GPS, HEK-293T) (PSI 1-6); higher = more stable. The following applies: c terminus: a fixed tail appended.
Consider AVNLIVSTLPSLREEEEQVRAHAP [S5I], for which the protein stability index stood at 3.86.

Regarding AVNLGVSTLPSLREEEEQVRAHAP [S5G], the protein stability index was found to be 4.93.

On to AVNLEVSTLPSLREEEEQVRAHAP [S5E], for which the protein stability index was found to be 5.33.

As for AVNLNVSTLPSLREEEEQVRAHAP [S5N], the protein stability index was 4.03.

AVNLCVSTLPSLREEEEQVRAHAP [S5C]: the protein stability index was 4.65.

In the case of AVNLMVSTLPSLREEEEQVRAHAP [S5M], the protein stability index is 4.49.

For the variant AVNLDVSTLPSLREEEEQVRAHAP [S5D], the protein stability index was determined as 5.24.

As to AVNLFVSTLPSLREEEEQVRAHAP [S5F], the protein stability index was determined as 3.79.

Take AVNLKVSTLPSLREEEEQVRAHAP [S5K]: the protein stability index is 4.47.

With AVNLRVSTLPSLREEEEQVRAHAP [S5R], the protein stability index came out at 3.29.

As for AVNLAVSTLPSLREEEEQVRAHAP [S5A], the protein stability index is 5.48.

With AVNLTVSTLPSLREEEEQVRAHAP [S5T], the protein stability index amounted to 4.59.

Take AVNLQVSTLPSLREEEEQVRAHAP [S5Q]: the protein stability index worked out at 4.2.

On to AVNLLVSTLPSLREEEEQVRAHAP [S5L], for which the protein stability index came to 3.82.

Consider AVNLPVSTLPSLREEEEQVRAHAP [S5P], for which the protein stability index came to 5.36.

On to AVNLHVSTLPSLREEEEQVRAHAP [S5H], for which the protein stability index was found to be 4.71.

AVNLVVSTLPSLREEEEQVRAHAP [S5V]: the protein stability index worked out at 4.1.

For AVNLYVSTLPSLREEEEQVRAHAP [S5Y], the protein stability index turned out to be 4.59.

On to AVNLWVSTLPSLREEEEQVRAHAP [S5W], for which the protein stability index came out at 3.31.

On to AVNLSVETLPSLREEEEQVRAHAP [S7E], for which the protein stability index amounted to 4.47.

For the variant AVNLSVCTLPSLREEEEQVRAHAP [S7C], the protein stability index is 4.41.

Regarding AVNLSVDTLPSLREEEEQVRAHAP [S7D], the protein stability index was found to be 4.8.

In the case of AVNLSVLTLPSLREEEEQVRAHAP [S7L], the protein stability index amounted to 3.62.

Turning to AVNLSVKTLPSLREEEEQVRAHAP [S7K], the protein stability index was 4.94.

As for AVNLSVITLPSLREEEEQVRAHAP [S7I], the protein stability index is 3.67.

Regarding AVNLSVATLPSLREEEEQVRAHAP [S7A], the protein stability index came to 4.75.

For AVNLSVGTLPSLREEEEQVRAHAP [S7G], the protein stability index stood at 5.18.

As for AVNLSVHTLPSLREEEEQVRAHAP [S7H], the protein stability index is 5.03.

For the variant AVNLSVFTLPSLREEEEQVRAHAP [S7F], the protein stability index came out at 4.11.

Consider ADNLSVSTLPSLREEEEQVRAHAP [V2D], for which the protein stability index was found to be 5.64.

Take AQNLSVSTLPSLREEEEQVRAHAP [V2Q]: the protein stability index was determined as 5.33.

For AHNLSVSTLPSLREEEEQVRAHAP [V2H], the protein stability index worked out at 5.54.

On to AGNLSVSTLPSLREEEEQVRAHAP [V2G], for which the protein stability index is 5.46.

Regarding ASNLSVSTLPSLREEEEQVRAHAP [V2S], the protein stability index was determined as 5.41.

With AMNLSVSTLPSLREEEEQVRAHAP [V2M], the protein stability index came out at 4.79.

On to ACNLSVSTLPSLREEEEQVRAHAP [V2C], for which the protein stability index amounted to 4.98.

Take ATNLSVSTLPSLREEEEQVRAHAP [V2T]: the protein stability index stood at 5.23.

For the variant AFNLSVSTLPSLREEEEQVRAHAP [V2F], the protein stability index came to 4.83.

Take ANNLSVSTLPSLREEEEQVRAHAP [V2N]: the protein stability index came to 5.59.

With AKNLSVSTLPSLREEEEQVRAHAP [V2K], the protein stability index amounted to 5.63.

Turning to AYNLSVSTLPSLREEEEQVRAHAP [V2Y], the protein stability index was found to be 4.93.

As for AWNLSVSTLPSLREEEEQVRAHAP [V2W], the protein stability index was determined as 4.1.

With ALNLSVSTLPSLREEEEQVRAHAP [V2L], the protein stability index stood at 5.04.

For the variant APNLSVSTLPSLREEEEQVRAHAP [V2P], the protein stability index stood at 5.57.

Turning to ARNLSVSTLPSLREEEEQVRAHAP [V2R], the protein stability index stood at 5.04.

As for AANLSVSTLPSLREEEEQVRAHAP [V2A], the protein stability index came out at 5.6.

For the variant AINLSVSTLPSLREEEEQVRAHAP [V2I], the protein stability index worked out at 4.89.

For AENLSVSTLPSLREEEEQVRAHAP [V2E], the protein stability index came to 5.39.

Consider AVNLSMSTLPSLREEEEQVRAHAP [V6M], for which the protein stability index came out at 4.98.

Consider AVNLSPSTLPSLREEEEQVRAHAP [V6P], for which the protein stability index was found to be 5.45.

Turning to AVNLSSSTLPSLREEEEQVRAHAP [V6S], the protein stability index is 5.18.

Consider AVNLSHSTLPSLREEEEQVRAHAP [V6H], for which the protein stability index came to 5.3.

Regarding AVNLSRSTLPSLREEEEQVRAHAP [V6R], the protein stability index came to 5.02.

Regarding AVNLSNSTLPSLREEEEQVRAHAP [V6N], the protein stability index came to 5.18.

On to AVNLSQSTLPSLREEEEQVRAHAP [V6Q], for which the protein stability index turned out to be 5.24.

On to AVNLSKSTLPSLREEEEQVRAHAP [V6K], for which the protein stability index came to 5.01.

Take AVNLSDSTLPSLREEEEQVRAHAP [V6D]: the protein stability index worked out at 5.34.

With AVNLSISTLPSLREEEEQVRAHAP [V6I], the protein stability index is 5.08.

AVNLSESTLPSLREEEEQVRAHAP [V6E]: the protein stability index worked out at 5.58.

As for AVNLSYSTLPSLREEEEQVRAHAP [V6Y], the protein stability index came to 4.69.

For AVNLSFSTLPSLREEEEQVRAHAP [V6F], the protein stability index was found to be 4.59.

AVNLSLSTLPSLREEEEQVRAHAP [V6L]: the protein stability index was 4.69.

For AVNLSCSTLPSLREEEEQVRAHAP [V6C], the protein stability index worked out at 4.75.

In the case of AVNLSGSTLPSLREEEEQVRAHAP [V6G], the protein stability index was 4.8.

Take AVNLSASTLPSLREEEEQVRAHAP [V6A]: the protein stability index is 5.14.

AVNLSWSTLPSLREEEEQVRAHAP [V6W]: the protein stability index worked out at 4.53.

Consider AVNLSTSTLPSLREEEEQVRAHAP [V6T], for which the protein stability index was found to be 5.08.

As to AVSLSVSTLPSLREEEEQVRAHAP [N3S], the protein stability index turned out to be 4.87.

For the variant AVELSVSTLPSLREEEEQVRAHAP [N3E], the protein stability index turned out to be 5.73.

For AVLLSVSTLPSLREEEEQVRAHAP [N3L], the protein stability index came out at 2.41.

For AVGLSVSTLPSLREEEEQVRAHAP [N3G], the protein stability index worked out at 5.03.

For AVQLSVSTLPSLREEEEQVRAHAP [N3Q], the protein stability index was found to be 4.77.

Turning to AVTLSVSTLPSLREEEEQVRAHAP [N3T], the protein stability index was 4.75.

Take AVPLSVSTLPSLREEEEQVRAHAP [N3P]: the protein stability index was 5.25.

AVALSVSTLPSLREEEEQVRAHAP [N3A]: the protein stability index amounted to 4.75.

Consider AVKLSVSTLPSLREEEEQVRAHAP [N3K], for which the protein stability index amounted to 4.43.

With AVDLSVSTLPSLREEEEQVRAHAP [N3D], the protein stability index came out at 5.26.

Take AVYLSVSTLPSLREEEEQVRAHAP [N3Y]: the protein stability index is 3.66.

For AVILSVSTLPSLREEEEQVRAHAP [N3I], the protein stability index is 3.05.

For AVFLSVSTLPSLREEEEQVRAHAP [N3F], the protein stability index is 3.02.

Take AVRLSVSTLPSLREEEEQVRAHAP [N3R]: the protein stability index amounted to 4.83.

On to AVWLSVSTLPSLREEEEQVRAHAP [N3W], for which the protein stability index came to 3.66.

With AVVLSVSTLPSLREEEEQVRAHAP [N3V], the protein stability index worked out at 3.06.

AVMLSVSTLPSLREEEEQVRAHAP [N3M]: the protein stability index worked out at 4.37.

As to AVHLSVSTLPSLREEEEQVRAHAP [N3H], the protein stability index turned out to be 4.72.

In the case of AVCLSVSTLPSLREEEEQVRAHAP [N3C], the protein stability index worked out at 4.45.

Turning to VVNLSVSTLPSLREEEEQVRAHAP [A1V], the protein stability index came to 4.39.

Take TVNLSVSTLPSLREEEEQVRAHAP [A1T]: the protein stability index stood at 5.46.

As for SVNLSVSTLPSLREEEEQVRAHAP [A1S], the protein stability index stood at 4.82.

As for RVNLSVSTLPSLREEEEQVRAHAP [A1R], the protein stability index stood at 5.31.

Take NVNLSVSTLPSLREEEEQVRAHAP [A1N]: the protein stability index worked out at 5.02.

For YVNLSVSTLPSLREEEEQVRAHAP [A1Y], the protein stability index is 2.47.

For the variant PVNLSVSTLPSLREEEEQVRAHAP [A1P], the protein stability index was determined as 5.12.

For the variant WVNLSVSTLPSLREEEEQVRAHAP [A1W], the protein stability index came to 3.81.
